Experimental data taken from patent US20240270846A1 (published 2024).

Target: T1, CD3 epsilon homodimer protein (UniProt P07766 23-126)
T1 construct: also called CD3 (CD3 epsilon)
Experiment: SPR Biacore T200, antibody over immobilised CD3e homodimer;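 also: CD3 epsilon homodimer amine-coupled on a CM4 chip, run at 25 °C in HBS-EP+, Z = bound amount of each single-residue H chain variant over that of the parent antibody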

T1 sequence (P07766 23-126): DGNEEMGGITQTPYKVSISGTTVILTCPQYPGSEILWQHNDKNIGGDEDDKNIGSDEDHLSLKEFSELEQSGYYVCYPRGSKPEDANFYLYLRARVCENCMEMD

| ratio of amounts bound (Z=Y/X vs CE115HA000) | Binder |
| --- | --- |
| 0.7 | CE115HA000 N53A one-arm antibody (antibody, human IgG1, kappa, L234A L235A, N297A, name in Kabat numbering, one-arm antibody) heavy: QVQLVESGGGVVQPGRSLRLSCAASGFTFSNAWMHWVRQAPGKGLEWVAQIKAKSANYATYYAESVKGRFTISRDDSKNSLYLQMNSLKTEDTAVYYCRYVHYGAYYGVDAWGQGTTVTVSSASTKGPSVFPLAPSSKSTSGGTAALGCLVKDYFPEPVTVSWNSGALTSGVHTFPAVLQSSGLYSLSSVVTVPSSSLGTQTYICNVNHKPSNTKVDKKVEPKSCDKTHTCPPCPAPEAAGGPSVFLFPPKPKDTLMISRTPEVTCVVVDVSHEDPEVKFNWYVDGVEVHNAKTKPREEQYASTYRVVSVLTVLHQDWLNGKEYKCKVSNKALPAPIEKTISKAKGQPREPQVYTLPPSRCELTKNQVSLSCAVKGFYPSDIAVEWESNGQPENNYKTTPPVLDSDGSFFLVSKLTVDKSRWQQGNVFSCSVMHEALHNHYTQKSLSLSPDYKDDDDK EPKSSDKTHTCPPCPAPELLGGPSVFLFPPKPKDTLMISRTPEVTCVVVDVSHEDPEVKFNWYVDGVEVHNAKTKPREEQYNSTYRVVSVLTVLHQDWLNGKEYKCKVSNKALPAPIEKTISKAKGQPREPQVCTLPPSRDELTKNQVSLWCLVKGFYPSDIAVEWESNGQPENNYKTTPPVLDSDGSFFLYSKLTVDKSRWQQGNVFSCSVMHEALHNRYTQKSLSLSP light: DIVMTQSPLSLPVTPGEPASISCRSSQSLVHSNRNTYLHWYQQKPGQAPRLLIYKVSNRFSGVPDRFSGSGSGTDFTLKISRVEAEDVGVYYCGQGTQVPYTFGQGTKLEIKRTVAAPSVFIFPPSDEQLKSGTASVVCLLNNFYPREAKVQWKVDNALQSGNSQESVTEQDSKDSTYSLSSTLTLSKADYEKHKVYACEVTHQGLSSPVTKSFNRGEC |
| 0.76 | CE115HA000 N53H one-arm antibody (antibody, human IgG1, kappa, L234A L235A, N297A, name in Kabat numbering, one-arm antibody) heavy: QVQLVESGGGVVQPGRSLRLSCAASGFTFSNAWMHWVRQAPGKGLEWVAQIKAKSHNYATYYAESVKGRFTISRDDSKNSLYLQMNSLKTEDTAVYYCRYVHYGAYYGVDAWGQGTTVTVSSASTKGPSVFPLAPSSKSTSGGTAALGCLVKDYFPEPVTVSWNSGALTSGVHTFPAVLQSSGLYSLSSVVTVPSSSLGTQTYICNVNHKPSNTKVDKKVEPKSCDKTHTCPPCPAPEAAGGPSVFLFPPKPKDTLMISRTPEVTCVVVDVSHEDPEVKFNWYVDGVEVHNAKTKPREEQYASTYRVVSVLTVLHQDWLNGKEYKCKVSNKALPAPIEKTISKAKGQPREPQVYTLPPSRCELTKNQVSLSCAVKGFYPSDIAVEWESNGQPENNYKTTPPVLDSDGSFFLVSKLTVDKSRWQQGNVFSCSVMHEALHNHYTQKSLSLSPDYKDDDDK EPKSSDKTHTCPPCPAPELLGGPSVFLFPPKPKDTLMISRTPEVTCVVVDVSHEDPEVKFNWYVDGVEVHNAKTKPREEQYNSTYRVVSVLTVLHQDWLNGKEYKCKVSNKALPAPIEKTISKAKGQPREPQVCTLPPSRDELTKNQVSLWCLVKGFYPSDIAVEWESNGQPENNYKTTPPVLDSDGSFFLYSKLTVDKSRWQQGNVFSCSVMHEALHNRYTQKSLSLSP light: DIVMTQSPLSLPVTPGEPASISCRSSQSLVHSNRNTYLHWYQQKPGQAPRLLIYKVSNRFSGVPDRFSGSGSGTDFTLKISRVEAEDVGVYYCGQGTQVPYTFGQGTKLEIKRTVAAPSVFIFPPSDEQLKSGTASVVCLLNNFYPREAKVQWKVDNALQSGNSQESVTEQDSKDSTYSLSSTLTLSKADYEKHKVYACEVTHQGLSSPVTKSFNRGEC |
| 0.5 | CE115HA000 N53G one-arm antibody (antibody, human IgG1, kappa, L234A L235A, N297A, name in Kabat numbering, one-arm antibody) heavy: QVQLVESGGGVVQPGRSLRLSCAASGFTFSNAWMHWVRQAPGKGLEWVAQIKAKSGNYATYYAESVKGRFTISRDDSKNSLYLQMNSLKTEDTAVYYCRYVHYGAYYGVDAWGQGTTVTVSSASTKGPSVFPLAPSSKSTSGGTAALGCLVKDYFPEPVTVSWNSGALTSGVHTFPAVLQSSGLYSLSSVVTVPSSSLGTQTYICNVNHKPSNTKVDKKVEPKSCDKTHTCPPCPAPEAAGGPSVFLFPPKPKDTLMISRTPEVTCVVVDVSHEDPEVKFNWYVDGVEVHNAKTKPREEQYASTYRVVSVLTVLHQDWLNGKEYKCKVSNKALPAPIEKTISKAKGQPREPQVYTLPPSRCELTKNQVSLSCAVKGFYPSDIAVEWESNGQPENNYKTTPPVLDSDGSFFLVSKLTVDKSRWQQGNVFSCSVMHEALHNHYTQKSLSLSPDYKDDDDK EPKSSDKTHTCPPCPAPELLGGPSVFLFPPKPKDTLMISRTPEVTCVVVDVSHEDPEVKFNWYVDGVEVHNAKTKPREEQYNSTYRVVSVLTVLHQDWLNGKEYKCKVSNKALPAPIEKTISKAKGQPREPQVCTLPPSRDELTKNQVSLWCLVKGFYPSDIAVEWESNGQPENNYKTTPPVLDSDGSFFLYSKLTVDKSRWQQGNVFSCSVMHEALHNRYTQKSLSLSP light: DIVMTQSPLSLPVTPGEPASISCRSSQSLVHSNRNTYLHWYQQKPGQAPRLLIYKVSNRFSGVPDRFSGSGSGTDFTLKISRVEAEDVGVYYCGQGTQVPYTFGQGTKLEIKRTVAAPSVFIFPPSDEQLKSGTASVVCLLNNFYPREAKVQWKVDNALQSGNSQESVTEQDSKDSTYSLSSTLTLSKADYEKHKVYACEVTHQGLSSPVTKSFNRGEC |
| 0.39 | CE115HA000 N53D one-arm antibody (antibody, human IgG1, kappa, L234A L235A, N297A, name in Kabat numbering, one-arm antibody) heavy: QVQLVESGGGVVQPGRSLRLSCAASGFTFSNAWMHWVRQAPGKGLEWVAQIKAKSDNYATYYAESVKGRFTISRDDSKNSLYLQMNSLKTEDTAVYYCRYVHYGAYYGVDAWGQGTTVTVSSASTKGPSVFPLAPSSKSTSGGTAALGCLVKDYFPEPVTVSWNSGALTSGVHTFPAVLQSSGLYSLSSVVTVPSSSLGTQTYICNVNHKPSNTKVDKKVEPKSCDKTHTCPPCPAPEAAGGPSVFLFPPKPKDTLMISRTPEVTCVVVDVSHEDPEVKFNWYVDGVEVHNAKTKPREEQYASTYRVVSVLTVLHQDWLNGKEYKCKVSNKALPAPIEKTISKAKGQPREPQVYTLPPSRCELTKNQVSLSCAVKGFYPSDIAVEWESNGQPENNYKTTPPVLDSDGSFFLVSKLTVDKSRWQQGNVFSCSVMHEALHNHYTQKSLSLSPDYKDDDDK EPKSSDKTHTCPPCPAPELLGGPSVFLFPPKPKDTLMISRTPEVTCVVVDVSHEDPEVKFNWYVDGVEVHNAKTKPREEQYNSTYRVVSVLTVLHQDWLNGKEYKCKVSNKALPAPIEKTISKAKGQPREPQVCTLPPSRDELTKNQVSLWCLVKGFYPSDIAVEWESNGQPENNYKTTPPVLDSDGSFFLYSKLTVDKSRWQQGNVFSCSVMHEALHNRYTQKSLSLSP light: DIVMTQSPLSLPVTPGEPASISCRSSQSLVHSNRNTYLHWYQQKPGQAPRLLIYKVSNRFSGVPDRFSGSGSGTDFTLKISRVEAEDVGVYYCGQGTQVPYTFGQGTKLEIKRTVAAPSVFIFPPSDEQLKSGTASVVCLLNNFYPREAKVQWKVDNALQSGNSQESVTEQDSKDSTYSLSSTLTLSKADYEKHKVYACEVTHQGLSSPVTKSFNRGEC |
